Data reported in article PMC6009646, “Regional conformational flexibility couples substrate specificity and scissile phosphate diester selectivity in human flap endonuclease 1”.

Molecular target: hFEN1QF (Homo sapiens, UniProt P39748 1-336, E120C;C235A;S293C;C311A)
Test: single-molecule FRET; 8 mM Ca2+; 20 nM DNA, ~50 pM protein; NMR: 10 mM HEPES-KOH pH 7.5, 6 mM KCl (76 mM KCl in titration), 0.1 mM EDTA, 4 mM NaN3, 100 mM bME, 298 K; smFRET: 55 mM HEPES-KOH pH 7.5, 110 mM KCl, 8 mM CaCl2, 0.1 mg/ml BSA, 1 mM DTT, room temperature
Details: protein: recombinant; tags: C-terminal HRV 3C-cleavable His6, cleaved; six residual C-terminal residues of the 3C site; bimolecular double flap: 5-nt 5' flap, 1-nt 3' flap; T1 has a GAA hairpin; F1:T1 annealed 1:1.1

Sequence of hFEN1QF (P39748 1-336 E120C/C235A/S293C/C311A): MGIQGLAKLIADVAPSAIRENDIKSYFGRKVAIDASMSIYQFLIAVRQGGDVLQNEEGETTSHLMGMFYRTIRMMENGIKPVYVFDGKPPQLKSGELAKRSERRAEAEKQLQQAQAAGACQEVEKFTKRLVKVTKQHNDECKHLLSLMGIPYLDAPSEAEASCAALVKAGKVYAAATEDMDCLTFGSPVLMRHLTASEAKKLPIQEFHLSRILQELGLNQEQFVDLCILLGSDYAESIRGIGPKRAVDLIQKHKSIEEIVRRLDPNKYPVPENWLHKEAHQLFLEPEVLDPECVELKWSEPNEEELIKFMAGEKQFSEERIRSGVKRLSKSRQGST

B1: DF5,1 (F1/T1) (structured_DNA)
DNA 1: TTTTTACAAGGACTGCTCGACAC
DNA 2: GTGTCGAGCAGTCCTTGTGACGACGAAGTCGTCC
- binding result: binds
